The values below come from the supplement of paper PMC11811203.

B1: THAP1; numbered along this chain (parent)
chain: MVQSCSAYGCKNRYDKDKPVSFHKFPLTRPSLCKEWEAAVRRKNFKPTKYSSICSEHFTPDCFKRECNNKLLKENAVPTIFLCTEPHDKKEDLLEPQEQLPPPPLPPPVSQVDAAIGLLMPPLQTPVNLSVFCDHNYTVEDTMHQRKRIHQLEQQVEKLRKKLKTAQQRCRRQERQLEKLKEVVHFQKEKDDVSERGYVILPNDYFEIVEVPA

This data set covers variants of B1. The data set is described as follows: THAP1 transcriptional activity (GFP+/GFP- enrichment relative to wild-type constructs) (ratio to WT); higher = more THAP1 activity (PSMB5 reporter activation). Particulars: with PSMB5 promoter-GFP reporter. The essentials: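 Variants were counted by Illumina sequencing of genomic DNA amplicons from BFP+ cells sorted into GFP-bright and GFP-dim bins five days after lentiviral transduction, in duplicate at MOI ~0.3. The library changed each of residues 2–213 of human THAP1 to all 20 amino acids and was introduced into THAP1-knockout HEK-293T cells with mClover3 knocked in at endogenous PSMB5. Activity equals the replicate-mean bright/dim read fold change over the mean of wild-type synonymous constructs.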
Turning to MVQSCSAYGCKNRYDKDKPVSFHKFPLTRPSLCKEWEAAVRRKNFKPTKYSSICSEHFTPDCFKRECNNKLLKENAVPTIFLCTEPHDKKEDLLEVQEQLPPPPLPPPVSQVDAAIGLLMPPLQTPVNLSVFCDHNYTVEDTMHQRKRIHQLEQQVEKLRKKLKTAQQRCRRQERQLEKLKEVVHFQKEKDDVSERGYVILPNDYFEIVEVPA [P96V], the THAP1 transcriptional activity turned out to be 0.729. As for MVQSCSAYGCKNRYDKDKPVSFHKFPLTRPSLCKEWEAAVRRKNFKPTKYSSICSEHFTPDCFKRECNNKLLKENAVPTIFLCTEPHDKKEDLLEPQEQLPPPPLPPPVSQVDAAIGLLMPPLQTPVNLSDFCDHNYTVEDTMHQRKRIHQLEQQVEKLRKKLKTAQQRCRRQERQLEKLKEVVHFQKEKDDVSERGYVILPNDYFEIVEVPA [V131D], the figure is 0.241; as for MVQSCSAYGCKNRYDKDKPVSFHKFPLTRPSLCKEWEAAVRRKNFKPTKYSSICSEHFTPDCFKRECNNKLLKENAVPTIFLCTEPHDKKEDLLEPMEQLPPPPLPPPVSQVDAAIGLLMPPLQTPVNLSVFCDHNYTVEDTMHQRKRIHQLEQQVEKLRKKLKTAQQRCRRQERQLEKLKEVVHFQKEKDDVSERGYVILPNDYFEIVEVPA [Q97M], 1.09; as for MVQSCSAYGCKNRYDKDKPVSFYKFPLTRPSLCKEWEAAVRRKNFKPTKYSSICSEHFTPDCFKRECNNKLLKENAVPTIFLCTEPHDKKEDLLEPQEQLPPPPLPPPVSQVDAAIGLLMPPLQTPVNLSVFCDHNYTVEDTMHQRKRIHQLEQQVEKLRKKLKTAQQRCRRQERQLEKLKEVVHFQKEKDDVSERGYVILPNDYFEIVEVPA [H23Y], 0.179.

With MVQSCSAYGCKNRYDKDKPVSFHKFPLTRPSLCKEWEAAVRRKNFKPTKYSSICSEHFTPDCFKRECNNKLLKENAVPTIFLCTEPHDKKEDLLEPQEQLPPPPLPPPVSQVDAAIGLLMPPLQTPVNLSVFCDHNYTVEPTMHQRKRIHQLEQQVEKLRKKLKTAQQRCRRQERQLEKLKEVVHFQKEKDDVSERGYVILPNDYFEIVEVPA [D141P], the THAP1 transcriptional activity came out at 0.986. The same measure for MVQSCSAYGCKNRYDKDKPVSFHKFPLTRPSLCKEWEAAVRRKNFKPTKYSSICSEHFTPDCFKRECNNKLLKENAVPTIFLCTEPHDKKEDLLEPQEQLPPPPLPPPVSQVDAAIGLLMPPLQTPVNLSVFCDHNYTVEDTMHQRKRIHQLEQQQEKLRKKLKTAQQRCRRQERQLEKLKEVVHFQKEKDDVSERGYVILPNDYFEIVEVPA [V156Q]: 0.225. As for MVQSCSAYGCKNRYDKDKPVSFHKFPLTRPSLCKEWEAAVRRKNFKPTKYSSICSEHFTPDCFKRECNNKLLKENAVPTIFLCTEPHDKKEDLLEPQEQLPPPPLPPPVSQVDAAIGLLMPPLQTPVNLSVFCDHNYTVEDTMHQRKRIHQLEQQVEKLRKKLKTAQQRCRRQERQLEKLKEVVHFQKEKDDVSERGYVILPNGYFEIVEVPA [D204G], the figure is 0.311; as for MVQSCSAYGCKNRYDKDKPVSFHKFPLTRPSLCKEWEAAVRRKNFKPTKYSSICSEHFTPDCFKRECNNKLLKENAVPTIFLCTEPHDKKEDYLEPQEQLPPPPLPPPVSQVDAAIGLLMPPLQTPVNLSVFCDHNYTVEDTMHQRKRIHQLEQQVEKLRKKLKTAQQRCRRQERQLEKLKEVVHFQKEKDDVSERGYVILPNDYFEIVEVPA [L93Y], 1.08. Regarding MVQSCSAYGCKNRYDKQKPVSFHKFPLTRPSLCKEWEAAVRRKNFKPTKYSSICSEHFTPDCFKRECNNKLLKENAVPTIFLCTEPHDKKEDLLEPQEQLPPPPLPPPVSQVDAAIGLLMPPLQTPVNLSVFCDHNYTVEDTMHQRKRIHQLEQQVEKLRKKLKTAQQRCRRQERQLEKLKEVVHFQKEKDDVSERGYVILPNDYFEIVEVPA [D17Q], the THAP1 transcriptional activity turned out to be 1.12. As for MVQSCSAYGCKNRYDKDKPVSFHKFPLTRPSLCKEWEAAVRRKNFKPTKYSSICSEHFTPDCFKRECNNKLLKENAVPTIFLCTEPHDKKEDLLEPQEQLPPPPLPPPVSQVDAAIGLLMPPLQTPVNLSVFCDHNYTVEDTMHQRKRIHQLEQQVEKLRKKLKTAQQRLRRQERQLEKLKEVVHFQKEKDDVSERGYVILPNDYFEIVEVPA [C170L], the THAP1 transcriptional activity is 0.894. The same measure for MVQSCSAYGCKNRYDKDKPVSFHKFPLTRPSLCKEWEAAVRRKTFKPTKYSSICSEHFTPDCFKRECNNKLLKENAVPTIFLCTEPHDKKEDLLEPQEQLPPPPLPPPVSQVDAAIGLLMPPLQTPVNLSVFCDHNYTVEDTMHQRKRIHQLEQQVEKLRKKLKTAQQRCRRQERQLEKLKEVVHFQKEKDDVSERGYVILPNDYFEIVEVPA [N44T]: 0.439; for MVQSCSAYGCKNRYDKDKPVSFHKFPLTRPSLCKEWEAAVRRKNFKPTKYSSICSEHFTPDCFKRECNNKLLKENAVPTIFLCTEPHDKKEDLLEPQEQLPPPPLPPPVSQVDAAIGLLMNPLQTPVNLSVFCDHNYTVEDTMHQRKRIHQLEQQVEKLRKKLKTAQQRCRRQERQLEKLKEVVHFQKEKDDVSERGYVILPNDYFEIVEVPA [P121N]: 0.457. The same measure for MVQSCSAYGCKNRYDKDKPVSFHKFPLTRPSLCKEWEAAVRRKNFKPTKYSSICSEHFTPDCFKRECNNKLLKENAVPTIFLCTEPHDKKEDLLEPQEQLPPPPLPPPVSQVDAAIGLLMPPLQTPVNLSVFCDHNMTVEDTMHQRKRIHQLEQQVEKLRKKLKTAQQRCRRQERQLEKLKEVVHFQKEKDDVSERGYVILPNDYFEIVEVPA [Y137M]: 0.114.

Consider MVQSCSAYGCKNRYDKDKPVSFHKFPLTRPSLCKEWEAAVRRKNFKPTKYSSICSEHFTPDCFKRECNNKLLKENAVPTIFLCTEPHDKKEDLLEPQEQLPPPPLPPPVSQVDAAIGLLMPPLQTPVNLSVFCDHNYTVEDTMHQRKRIHQLEQQVEKLRKKLKTAQQRCRRQERQLEKLKPVVHFQKEKDDVSERGYVILPNDYFEIVEVPA [E182P], for which the THAP1 transcriptional activity worked out at 0.778.
